Where two headings read alike, the source gives them in different places.
Key:
[1] = system: T1, 5FAMcollagenPPT protease substrate
T1 sequence: AGGPLGPPGPGGK

[2] = biological target: T2, 5FAMcollagenPPT protease substrate
T2 chain: AGGPLGPPGPGGK

Molecule: Neutral Protease
- Km, with 4.14 mM calcium (FRET cleavage assay) [1]: 45.1 µM
- Km, without calcium (FRET cleavage assay) [1]: 74.1 µM
- Vmax, with 4.14 mM calcium (FRET cleavage assay) [1]: 29.3 RFU/min/µg
- Vmax, without calcium (FRET cleavage assay) [1]: 20 RFU/min/µg

Molecule: trypsin
- cleavage of substrate (FRET assay, Example 3, 0.3125-10 µg/mL enzyme, 50 µM substrate) [1]: the mammalian proteases trypsin, chymotrypsin, and elastase do not cleave the protease substrate

Molecule: collagenase class I
- Km (FRET cleavage assay, Example 3) [1]: 28.2 µM
- Km, with 4.14 mM calcium (FRET cleavage assay) [1]: 32.9 µM
- Km, without calcium (FRET cleavage assay) [1]: 38.1 µM
- Vmax (FRET cleavage assay, Example 3) [1]: 909 RFU/min/µg
- Vmax, with 4.14 mM calcium (FRET cleavage assay) [1]: 1010 RFU/min/µg
- Vmax, without calcium (FRET cleavage assay) [1]: 1700 RFU/min/µg

Molecule: chymotrypsin
- cleavage of substrate (FRET assay, Example 3, 0.3125-10 µg/mL enzyme, 50 µM substrate) [1]: the mammalian proteases trypsin, chymotrypsin, and elastase do not cleave the protease substrate

B1: collagenase class II (protein)
chain: VQNESKRYTVSYLKTLNYYDLVDLLVKTEIENLPDLFQYSSDAKEFYGNKTRMSFIMDEIGRRAPQYTEIDHKGIPTLVEVVRAGFYLGFHNKELNEINKRSFKERVIPSILAIQKNPNFKLGTEVQDKIVSATGLLAGNETAPPEVVNNFTPILQDCIKNIDRYALDDLKSKALFNVLAAPTYDITEYLRATKEKPENTPWYGKIDGFINELKKLALYGKINDNNSWIIDNGIYHIAPLGKLHSNNKIGIETLTEVMKVYPYLSMQHLQSADQIKRHYDSKDAEGNKIPLDKFKKEGKEKYCPKTYTFDDGKVIIKAGARVEEEKVKRLYWASKEVNSQFFRVYGIDKPLEEGNPDDILTMVIYNSPEEYKLNSVLYGYDTNNGGMYIEPEGTFFTYEREAQESTYTLEELFRHEYTHYLQGRYAVPGQWGRTKLYDNDRLTWYEEGGAELFAGSTRTSGILPRKSIVSNIHNTTRNNRYKLSDTVHSKYGASFEFYNYACMFMDYMYNKDMGILNKLNDLAKNNDVDGYDNYIRDLSSNYALNDKYQDHMQERIDNYENLTVPFVADDYLVRHAYKNPNEIYSEISEVAKLKDAKSEVKKSQYFSTFTLRGSYTGGASKGKLEDQKAMNKFIDDSLKKLDTYSWSGYKTLTAYFTNYKVDSSNRVTYDVVFHGYLPNEGDSKNSLPYGKINGTYKGTEKEKIKFSSEGSFDPDGKIVSYEWDFGDGNKSNEENPEHSYDKVGTYTVKLKVTDDKGESSVSTTTAEIKDLSENKLPVIYMHVPKSGALNQKVVFYGKGTYDPDGSIAGYQWDFGDGSDFSSEQNPSHVYTKKGEYTVTLRVMDSSGQMSEKTMKIKITDPVYPIGTEKEPNNSKETASGPIVPGIPVSGTIENTSDQDYFYFDVITPGEVKIDINKLGYGGATWVVYDENNNAVSYATDDGQNLSGKFKADKPGRYYIHLYMFNGSYMPYRINIEGSVGR
- Km (FRET cleavage assay, Example 3) [2]: 24.5 µM
- Km, without calcium (FRET cleavage assay) [2]: 24.1 µM
- Vmax (FRET cleavage assay, Example 3) [2]: 5000 RFU/min/µg
- Vmax, without calcium (FRET cleavage assay) [2]: 3240 RFU/min/µg

B2: thermolysin (protein)
chain: ITGTSTVGVGRGVLGDQKNINTTYSTYYYLQDNTRGNGIFTYDAKYRTTLPGSLWADADNQFFASYDAPAVDAHYYAGVTYDYYKNVHNRLSYDGNNAAIRSSVHYSQGYNNAFWNGSQMVYGDGDGQTFIPLSGGIDVVAHELTHAVTDYTAGLIYQNESGAINEAISDIFGTLVEFYANKNPDWEIGEDVYTPGISGDSLRSMSDPAKYGDPDHYSKRYTGTQDNGGVHINSGIINKAAYLISQGGTHYGVSVVGIGRDKLGKIFYRALTQYLTPTSNFSQLRAAAVQSATDLYGSTSQEVASVKQAFDAVGVK
- Km (FRET cleavage assay, Example 3) [2]: 34.6 µM
- Km, with 4.14 mM calcium (FRET cleavage assay) [2]: 24.8 µM
- Km, without calcium (FRET cleavage assay) [2]: 30.4 µM
- Vmax (FRET cleavage assay, Example 3) [2]: 24.6 RFU/min/µg
- Vmax, with 4.14 mM calcium (FRET cleavage assay) [2]: 25.5 RFU/min/µg
- Vmax, without calcium (FRET cleavage assay) [2]: 23.7 RFU/min/µg

Source: patent US20190004036
